Laboratory results reported in the DeepSol protein solubility set.

Assay: soluble on expression in E. coli; label from the status in PepcDB or PDB records

Sequence | soluble on expression in E. coli
MQAGARLARQDNAMADAPAPAPKRARAGRPPTLAAPRERILEEAARLFARSGYENSSVADLAAAIGVSKAALYHYFPTKQDIYDAIILETLAGLLQAVTREVERQREACERLRAFMVGHARYFARHHEQFVTMLIGYSGMALPERADAAQLRDRYEQLLRDLLEQGMATGTLRRLDVAATGRAVLSMLNWMVRWYKPGQGDSAEQIADGYYDLLFNGLRI | soluble
GPLETDLVAVWDVALSDGVHKIEFEHGTTSGKRVVYVDGKEEIRKEWMFKLVGKETFYVGAAKTKATINIDAISGFAYEYTLEINGKSLKKYMEDRSKTTNTWVLHMDGENFRIVLEKDAMDVWCNGKKLETAGEFVDDGTETHFSIGNHDCYIKAVSSGKRKEGIIHTLIVDNREIPEIAS | soluble
MGSDKIHHHHHHMLVVKDKPKSPISEAYRTLRSNIQFSSFDKDMQLILITSSGPGEGKSTTSCNLALAMAEAGNSVLLLDCDLRKPSVHKKFKISNNIGLSNVLAGQTKFESASHWYNQNLCILTAGKIPPNPAEMLSSKRMKAFLNEAKGVFKYIILDAPPVIAVTDPQILSTMVDGVVLVVSSGVADIEAAKRAKELLENVNANIIGSVLNRVDTESRRGYYGGYYYYYGDEGEKVKKHKDR | not soluble
SLSFSSKVKSEVCRYDDYSKGEAIAVLSAVMKASGTLALEGNRKISFKIITENPAIARLIFKLLKKYFDIHTEIMMKKSNSLKKNNVYVVSITEDMGVRELLKTVGVMKNEDGIVTLSYDIPEFVVKDDESRKMYIRGAFLGGGSVSNPEKMYHLEFVTHNEDYASNLRDLINTYGLNSKVIQRKNSYVVYIKEGEQVVDLLNIIGAHSSLLELENIRIIKEMRNNINRLVNCETANLSKTVNASVRQIESIKLIEKQIGLSRLPENLREVAKLRLNYPDESLKELGKMLEPPVGKSGVNHRLRKIEKIAEELRKEGR | soluble
MKKIMILVAVISFFSFSDDIKIDRAVKESITKDFDQDGKYSAYEKALRKAQESIYVTLPEHRGYWYSTLDKIKAEEEELLPDETARMRRR | not soluble
MSLYHDGPIEVLPGVWLGAEESVGRWDIWAGNTAGNTVRVVNVAQEVEDPFDAAGPGRVSGWPRPSALPAETAKRRMKLRTYPAVVGDGTRPHVEYCHARWSHGELGLADLPADACLGDVLYPRAPENNEGLWRFWETIRWMEEGRQGGTPILIHSQCGVSRSATLAIAYTMALAAAGAMPQYLGHIRVMQDAYDFVKGKSCWIGPNHSLVFQLVDFARNLTTLLSEGHHHHHH | soluble
KQKKMQAMIVTSRPDRVIRMIHHKLHRGVTIINDAEGTYNHEHKAILVTIITRAEFNDFKYIMKKTDKNAFVSVADNVNIIGRFVEED | not soluble
MAHHHHHHMEDMYEMQHSNLRCLPENYNLRYYYYHLLSWPQLLYVQQDYNRNTVGYVLGKMDDEEVPDKKHGHITSLAVLRSHRKLGIASRVMRATMKEMDAEYGAHYCSLHVRKTNDAALHLYQDTLGFRCVGVEEKYYMDEEDAYHMKSFFHQANPGSYVDDHKRLIRKTVPGELEGGPAAAGASSPAVGGRGGDKNGKRGNDKAAKEISAKEREAAMAELLGLEVGGKGRAAGGGAGGKGKSGNSSGGGGKRGSGRQK | soluble
MELKTSDVAARLGVSPKTIQRWVRKYDIPLRRNEAGHYLFDEKTVALLERVKFEQGAAMEAPPTPKRPPTPLRNNIPIDALHESIEPEIARVSSRLDQLERQLEQKADDVVSIQLLHHRQEMEEIVARLTALEQLVARLEQQLNTRPPAPHEPPEETKQKRRGLGRVMGLFA | not soluble
MFLTWENLFLTNQSRRRLKLLVVERSYNNVGNFLKEYFGGFFEIVNFDDLRLTMVDMVSLSSEYDVIVTDMILEQTTDSEILFFNQMAPSVVANRLTDM | not soluble
MIFSVRGEVLEVALDHAVIEAAGIGYRVNATPSALATLNQGSQARLVTAMVVREDSMTLYGFSDAENRDLFLALLSVSGVGPRLAMATLAVHDAAALRQALADSDVASLTRVPGIGRRGAERIVLELADKVGPVGASGLTVGTAADGNAVRGSVVEALVGLGFAAKQAEEATDQVLDGELGKDGAVATSSALRAALSLLGKTR | soluble
AHHHHHHGSEYKPIRKVVSGNYAAAYAALHARVQVVAAYPITPQTSIIEKIAEFIANGEADIQYIPVESEHSAMAACIGASATGARTFTATSAQGLALMHEMLHWAAGARLPIVMVDVNRAMAPPWSVWDDQTDSLSQRDTGWMQFYAENNQEVYDGVLMAYKVAETVNVPAMVVESAFILSHTYDVVEMIPQELVDEFLPPRKPLYSLANFDEPIAVGALATPNDYYEFRYKLAKAHEEAKKVIKEVGKEFGERFGRDYSQMIETGYIDDADFVFMGMGSLMGTVKEAVDLLRKEGYKVGYAKVRWFRPFPKEELVEIAESVKGIAVLDRNFSFGQEGILFTESKGALYNSSAHPLMKNYIVGLGGRDVTVKDIKAIADDMKKVIESGKVDKEVVWYHLKR | soluble
MGHHHHHHSHMKRDELMELIFLGTSAGVPTRTRNVTAILLNLQHPTQSGLWLFDCGEGTQHQLLHTAFNPGKLDKIFISHLHGDHLFGLPGLLCSRSMSGIIQPLTIYGPQGIREFVETALRISGSWTDYPLEIVEIGAGEILDDGLRKVTAYPLEHPLECYGYRIEEHDKPGALNAQALKAAGVPPGPLFQELKAGKTITLEDGRQINGADYLAAPVPGKALAIFGDTGPCDAALDLAKGVDVMVHEATLDITMEAKANSRGHSSTRQAATLAREAGVGKLIITHVSSRYDDKGCQHLLRECRSIFPATELANDFTVFNV | not soluble
MGSDKIHHHHHHMINNEKYKELIKYLKSLGKVVLAFSGGVDSTFLLKASKEALGDNVKAVTILSPYIPKWEIREAEELVKELGVEHEIIKAPIIDSIKFNPEDRCYLCKTAVFSMILDAAKRQGYDCVIDGTNFDDIKDYRPGLRALKELSVKSPLLECKLTKAEIRTFSKELGLKTWDKPPYACLLTRIPYGNELKVEDFEKIERAERYMMSIGFRAIRVRCHDDLARIEVAREDRSKLFNEELLDTISENIKKCGFKYVSLDLQGYRVGSFNETIAKISDK | not soluble
MTERFDCHHCNESLFGKKYILREESPYCVVCFETLFANTCEECGKPIGCDCKDLSYKDRHWHEACFHCSQCRNSLVDKPFAAKEDQLLCTDCYSNEYSSKCQECKKTIMPGTRKMEYKGSSWHETCFICHRCQQPIGTKSFIPKDNQNFCVPCYEKQHAMQCVQCKKPITTGGVTYREQPWHKECFVCTACRKQLSGQRFTARDDFAYCLNCFCDLYAKKCAGCTNPISGLGGTKYISFEERQWHNDCFNCKKCSLSLVGRGFLTERDDILCPDCGKDI | soluble
MNFDLFADEASRRWTETLAPGAVILRGHAYDDAPALLAALQTVIACAPLRNMITPGGFVMSVAMSNCGQLGWVTDEQGYRYTSHDPLSGEAWPAMPEAFSLLAKQAASEAGFADFEPDACLINRYDVGTRMSLHQDKNERDFHQPIVSVSLGLSATFLFGGMVRSDKAQRVPLTHGDVVVWGGESRLYFHGILPLKSGAVPEGMPDECRFNLTFRKAGLEHHHHHH | soluble
SMAAAAVVQIPAGATFLETFKKSFVDVPIDAEKGNAISTAEFLEAAESLTTMFDVLGSIAFSPVKTDMLGNVEKIRKRMLAAPLESQNIQDLVRNELKTKSHTATEGLLWLVRGLEFTCIALSKNIGSTEELADSFRGSYRVTLKPHHSFLVKPIFSAAMSACPYRKDFYAKLGDDEQKVQEELREYLVALDKIVNILKRFLESKEAKW | soluble
MVKAVIFTDFDGTVTLEDSNDYLTDTLGFGKEKRLKVFEGVLDDTKSFRQGFMEMLESIHTPFPECIKILEKKIRLDPGFKDTFEWAQENDVPVIVVSSGMKPIIKVLLTRLVGQESIHKIDIVSNEVEIDAHDQWKIIYKDESPFGHDKSRSIDAYKKKFESTLKAGEQRPVYFYCGDGVSDLSAAKECDLLFAKRGKDLVTYCKKQNVPFHEFDTFKDILASMKQVLAGEKTVAELMEN | soluble
MGSDKIHHHHHHMNPGWRVVDLIDFDGKVSYQRGQLAITSDSGELRATLPLAQIAVVLIGNKLIISGAVLVKLSEYDIAVLVCDWRRVPVAGSFSWNEHTRIAARQRAQASLSLPRQKSAWAQIIKAKILGQARTAAQLGFDATDLKNLARAVRSGDVDNREAMAAKRYWEIISAEDDFRRLPGLAATGWNGALDYAYTVLRGHGMRAICSAGLVGTLGVFHHGRGNQFALVDDLIEPFRPAIDYAVFSIVSNSQELDKETKRQLVAAVEEPFNSAGQSIPTVFTAFAQQYGRYVEGDVEKLVPPIWEGPFDAEER | not soluble
MSEQLTDQVLVERVQKGDQKAFNLLVVRYQHKVASLVSRYVPSGDVPDVVQEAFIKAYRALDSFRGDSAFYTWLYRIAVNTAKNYLVAQGRRPPSSDVDAIEAENFESGGALKEISNPENLMLSEELRQIVFRTIESLPEDLRMAITLRELDGLSYEEIAAIMDCPVGTVRSRIFRAREAIDNKVQPLIRR | not soluble
QEAQANTESEKRRLDSVITHMSDGILATDRRGRVRIANDMALKMLGLAKEDVIGYYMLGVLNLENEFSLEEIQENSDSFLLDINEEEGIIARVNFSTIVQETGFVTGYIAVLHDVT | not soluble
MSLGYQYDTLIYNVRIASMQDNKLPYGELPPHAIAIKDGKIAALLPCDDSLDDVFEQAKSVIDATTLIPQNEGSTPKPPWLLPGFIDCHTHLVYGGNRAEEFEMRLQGASYVDIAQRGGGIKGTVEKTRCSDENTLLHTAIKRAKRLCEEGVTTIEVKSGYGLDLDTEVRMLRVAKSLEQHLPVSIKTTYLGAHALPNEFADDSEGYIDFICNEALPHIASQNLADAVDVFCETIGFSTSQTERVFSCAQQHGLPIKAHVEQLSDSKGAVLAAKYGALSVDHIEYLADSDIPLLAQSGTVAVLLPGAFYYLSEVQKPPVDALRAHNVPMALATDFNPGSSPLASILTAINMGCVLFQLTPEEALRGATAHAASALGLHDRGVIEAGKLADLTLWDIETPAELAYCINGHRPIAVFKEGKHVEGHHHHHH | soluble
MKRKTKIVSTIGPASESVDKLVQLMEAGMNVARLNFSHGDHEEHGRRIANIREAAKRTGRTVAILLDTKGPEIRTHNMENGAIELKEGSKLVISMSEVLGTPEKISVTYPSLIDDVSVGAKILLDDGLISLEVNAVDKQAGEIVTTVLNGGVLKNKKGVNVPGVKVNLPGITEKDRADILFGIRQGIDFIAASFVRRASDVLEIRELLEAHDALHIQIIAKIENEEGVANIDEILEAADGLMVARGDLGVEIPAEEVPLIQKLLIKKSNMLGKPVITATQMLDSMQRNPRPTRAEASDVANAIFDGTDAVMLSGETAAGQYPVEAVKTMHQIALRTEQALEHRDILSQRTKESQTTITDAIGQSVAHTALNLDVAAIVTPTVSGKTPQMVAKYRPKAPIIAVTSNEAVSRRLALVWGVYTKEAPHVNTTDEMLDVAVDAAVRSGLVKHGDLVVITAGVPVGETGSTNLMKVHVISDLLAKGQGIGRKSAFGKAVVAKTAEEARQKMVDGGILVTVSTDADMMPAIEKAAAIITEEGGLTSHAAVVGLSLGIPVIVGVENATTLFKDGQEITVDGGFGAVYRGHASVL | soluble
